{
  "source": "patent US20250304677A1",
  "about": "(VIB VZW, published 2025)",
  "binders": {"B1": {"name": "VHH 2HFO42 (family 3) (VHH)", "VHH": "QVQLQESGGGLVQAGGSLRLSCAASGSGFSGMIMGWYRQVPGKQRELVATVTSHGTTNYADSVKGRFTISRDNAKNTVLLQMNSLKPEDTAVYYCNAHFPGIYWGKGTQVTVSS", "notes": "also called 2HF042; Nb42"}, "B2": {"name": "VHH 3MFR60 (family 10) (VHH)", "VHH": "QVQLQESGGGLVQAGGSLRVSCAASGIIFSMNGMGWFRQAPGKQRELVASITSGGSTKYADSVKGRFTISRDNAKNTVYLQMNSLKPEDTAVYYCNIQFGSRWSTYWGQGTQVTVSS"}, "B3": {"name": "VHH 2HFO19 (family 1) (VHH)", "VHH": "QVQLQESGGGLVQPGGSLRVSCAASGFPFSTVYMSWVRQAPGKGLEWVSGINNDGGVIDYADSVKGRFTISRDNAKNTLYLQLNSLKPEDTALYFCARGRSFVATLSSSLRGQGTQVTVSS", "notes": "also called Nb19"}},
  "data": [
    {"target": "T1, mouse folate receptor alpha (mFRα), recombinant protein (mouse, UniProt P35846 25-232)", "T1 construct": "Bought recombinant proteins (e.g. biotinylated, Acro Biosystems FO1-M82E9); also called mFOLR1; Ms FOLR1", "T1 sequence (P35846 25-232 limits assumed)": "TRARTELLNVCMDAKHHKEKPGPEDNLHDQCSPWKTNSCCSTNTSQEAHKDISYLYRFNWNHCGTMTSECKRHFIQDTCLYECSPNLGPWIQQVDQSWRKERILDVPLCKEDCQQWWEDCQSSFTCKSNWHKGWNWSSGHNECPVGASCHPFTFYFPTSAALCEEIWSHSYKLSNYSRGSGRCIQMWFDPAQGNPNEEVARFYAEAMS", "assay": "BLI tandem binning on mouse FRα; competitor (1st association) 2MFR32", "source_text": "(§1) VHHs that share high sequence identity in the CDR3 region, a VHH family, are derived from the same B-cell lineage and diverged from each other due to somatic hypermutation or affinity maturation. Typically, VHHs from the same family recognize the same epitope on the target, but may differ in other characteristics ^{∘}De Genst et al 2006 PNAS 103:4586-4591; De Gents et al 2005 J Biol Chem 280:14114-14121). To study whether the VHHs from the different families bound different epitopes, epitope binning was performed using a tandem binding approach in BLI. One VHH from each family was allowed to bind to mouse FRα on the biosensor, followed by binding of the second VHH ^{∘}Table 4).\n(§2) Competition between VHHs from different complementarity determining region ^{∘}CDR) 3 families was assessed in a tandem binding assay using biolayer interferometry ^{∘}BLI). Streptavidin biosensors were loaded with biotinylated mouse FRα ^{∘}Acro Biosystems, Cat.nr. FO1-M82E9), followed by binding of anti-FRα VHHs ^{∘}VHH in first association). The biosensors were then transferred to a solution containing a second VHH mixed 1:1 with the first VHH ^{∘}VHH in second association). Using the FortéBio Data Analysis Software the absolute additional binding signal for the second association on top of the first association was calculated. The data were normalized per VHH in first association using the following formula: ^{∘}signal-self)/^{∘}maximum-self) with self being the value of the VHH in first association in combination with the same VHH in second association.", "units": {"normalized additional binding in 2nd association": "%"}, "values": [
      {"binder": "B1", "normalized additional binding in 2nd association": 41},
      {"binder": "B2", "normalized additional binding in 2nd association": 75},
      {"binder": "B3", "normalized additional binding in 2nd association": 100}
    ]},
    {"target": "T2, mouse folate receptor alpha expressed on transfected HEK293T cells (mouse, UniProt P35846 25-232)", "T2 construct": "also called cell-expressed mouse FRα", "T2 sequence (P35846 25-232 limits assumed)": "as above", "assay": "flow cytometry on HEK293T cells overexpressing mouse FOLR1, His tag detection, PE MFI, non-linear fit", "description": "Data were normalized and technical replicates were plotted as mean±SD. Data were fitted by non-linear regression and the half-maximal effective concentration ^{∘}EC50) was calculated using GraphPad Prism 9 software. ^{∘}FIG. 1C and FIG. 1D) Binding affinity determination of anti-FOLR1 VHHs for native FOLR1. Mouse ^{∘}FIG. 1C) or human FOLR1 FIG. 1D) was overexpressed on HEK293T cells and binding of the anti-FOLR1 VHHs was assessed using flow cytometry. The mean fluorescence intensity ^{∘}MFI) of the phycoerythrin signal was plotted for each VHH concentration. Data were fitted by non-linear regression using GraphPad Prism 9 software. ^{∘}FIG. 1E) Determination of the competition of representative family members with folic acid ^{∘}FA) using ELISA. Mouse FOLR1 was coated on the plate and was pre-incubated with or without 100 μM FA before adding the VHHs. Data were fitted by non-linear regression using GraphPad Prism 9 software.", "units": {"EC50": "nM"}, "values": [
      {"binder": "B1", "EC50": 1.2},
      {"binder": "B2", "EC50": 1.5},
      {"binder": "B3", "EC50": 1.4}
    ]},
    {"target": "T3, human folate receptor beta (FRβ) (human, UniProt P14207 17-230, limits assumed)", "T3 construct": "also called hFOLR2; human FOLR2", "T3 sequence (P14207 17-230 limits assumed)": "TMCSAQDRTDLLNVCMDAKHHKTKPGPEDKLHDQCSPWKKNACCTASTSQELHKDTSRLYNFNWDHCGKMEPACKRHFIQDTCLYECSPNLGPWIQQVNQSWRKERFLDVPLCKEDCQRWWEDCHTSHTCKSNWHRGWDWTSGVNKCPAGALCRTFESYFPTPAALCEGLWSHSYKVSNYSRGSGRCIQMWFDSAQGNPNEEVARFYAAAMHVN", "assay": "flow cytometry on transiently transfected HEK293T cells, mouse anti-His then anti-mouse-PE (B575-A)", "source_text": "(§3) FIGS. 2A-2C illustrates the epitope mapping of anti-FOLR1 VHHs on human FOLR1/2 chimeras. ^{∘}FIG. 2A) To narrow down the epitope of the anti-folate receptor alpha ^{∘}FOLR1) VHHs, chimeric constructs were generated by exchanging a sequence block in human FOLR1 ^{∘}hFOLR1) by the corresponding human folate receptor beta ^{∘}hFOLR2) sequence, since the VHHs are able to bind both hFOLR1 and mouse FOLR1 ^{∘}mFOLR1; SEQ ID No.97), but not hFOLR2. These regions are indicated by the green arrows. Chimera 1 SEQ ID No. 67) and 7 ^{∘}Ch7; SEQ ID No. 73) also contain an additional residue change at a separate location. […] HEK293T cells were transfected with hFOLR1, hFOLR2, one of the hFOLR1/2 chimeric constructs ^{∘}FIG. 2B) or single residue mutants ^{∘}FIG. 2C). Binding of VHHs 2HFO19, 2HFO42, 3MFR60, and a mouse anti-FOLR1 monoclonal antibody ^{∘}mAb) was detected using a mouse anti-His tag antibody for the VHHs followed by an anti-mouse-phycoerythrin antibody. All VHHs were tested at a concentration of 200 nM and untransfected cells were used as a negative control. The colors used for the VHHs represent the different CDR3 families; blue: family 1, green: family 3, grey: family 10.\n(§4) To further narrow down which specific residues might play a role, single residues of human FRα in the chimera 4 region that are not conserved between FRα and FRβ were mutated to their human FRβ counterpart. While all VHHs retained binding to human FRα E140Q SEQ ID No. 77), R147H ^{∘}SEQ ID No. 79), and Y150H ^{∘}SEQ ID No. 80) ^{∘}data not shown), binding was completely abolished when the Q141R mutation ^{∘}SEQ ID No. 78) was introduced ^{∘}FIG. 2C). To verify the role of this residue in the binding of the VHHs, the R135 residue in human FRβ was replaced by glutamine ^{∘}SEQ ID No. 81) and binding of the VHHs was analyzed. […] In addition to having ^{∘}partially) overlapping epitopes, the VHHs thus all require residue Q141 for binding.", "values": [
      {"binder": "B1", "binding result": "no binding (tested: 200 nM)"},
      {"binder": "B2", "binding result": "no binding (tested: 200 nM)"},
      {"binder": "B3", "binding result": "no binding (tested: 200 nM)"}
    ]},
    {"target": "T4, human FRα Q141R (human, UniProt P15328 25-234)", "T4 construct": "The entry is the mutant itself", "T4 sequence (P15328 25-234 Q141R limits assumed)": "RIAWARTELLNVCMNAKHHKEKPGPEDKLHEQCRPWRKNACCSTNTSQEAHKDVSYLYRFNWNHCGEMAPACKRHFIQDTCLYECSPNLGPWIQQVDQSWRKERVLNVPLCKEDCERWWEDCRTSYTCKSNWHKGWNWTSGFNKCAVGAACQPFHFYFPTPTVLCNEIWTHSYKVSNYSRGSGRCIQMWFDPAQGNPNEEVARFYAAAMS", "assay": "flow cytometry on transiently transfected HEK293T cells, mouse anti-His then anti-mouse-PE (B575-A)", "source_text": "as §3, §4", "values": [
      {"binder": "B1", "binding result": "no binding (tested: 200 nM)"},
      {"binder": "B2", "binding result": "no binding (tested: 200 nM)"},
      {"binder": "B3", "binding result": "no binding (tested: 200 nM)"}
    ]},
    {"target": "T1, mouse folate receptor alpha (mFRα), …", "assay": "BLI tandem binning on mouse FRα; competitor (1st association) 3MFR60", "source_text": "as §1, §2", "units": {"normalized additional binding in 2nd association": "%"}, "values": [
      {"binder": "B1", "normalized additional binding in 2nd association": -2},
      {"binder": "B2", "normalized additional binding in 2nd association": 0},
      {"binder": "B3", "normalized additional binding in 2nd association": -7}
    ]},
    {"target": "T1, mouse folate receptor alpha (mFRα), …", "assay": "BLI tandem binning on mouse FRα; competitor (1st association) 2HFO19", "source_text": "as §1, §2", "units": {"normalized additional binding in 2nd association": "%"}, "values": [
      {"binder": "B1", "normalized additional binding in 2nd association": 1},
      {"binder": "B2", "normalized additional binding in 2nd association": 6},
      {"binder": "B3", "normalized additional binding in 2nd association": 0}
    ]},
    {"target": "T1, mouse folate receptor alpha (mFRα), …", "assay": "BLI tandem binning on mouse FRα; competitor (1st association) 2HFO42", "source_text": "as §1, §2", "units": {"normalized additional binding in 2nd association": "%"}, "values": [
      {"binder": "B1", "normalized additional binding in 2nd association": 0},
      {"binder": "B2", "normalized additional binding in 2nd association": 34},
      {"binder": "B3", "normalized additional binding in 2nd association": 12}
    ]}
  ]
}
